Values of other authors as cited in publication PMC11969719, “Rapid synthesis of glycosylated insulins by flow-based peptide synthesis” (Chemical Science, 2025).

Settings: ref [5c,18]
Description: To address this issue, we incorporated an isoacyl dipeptide unit at the Thr^A8-Ser^A9 position (superscripts indicate positions in the A-chain), following a previous report,[8b] as the isoacyl dipeptide improves both peptide solubility and synthetic efficiency.[19]

A-chain: insulin A-chain, 21-amino acid chain of human insulin
solubility (in words): poor solubility
